# Experimental data as given in patent US20150368338A1 (Janssen / Centocor, published 2015).
# Columns and labels:
# Assay in all cases: cell-based or functional assay
# [1] = target: IFN-αK (human, UniProt P05013 24-189)
# [2] = target: IFN-αJ1 (human, UniProt P01567 24-189)
# [3] = target: T1, human IFN-ω (human, UniProt P05000 24-195)
# [4] = target: IFN-α4a (human, UniProt P05014 24-189)
# [5] = target: IFN-αWA (human, UniProt P05015 24-189)
# [6] = target: IFN-αI (human, UniProt P01571 24-189)
# [7] = target: T1, human IFN-ω; remark: listed apart in the source
Binder,"IC50 (pM), ISRE assay [1] [pM]","IC50 (pM), ISRE assay [2] [pM]","IC50 (pM), ISRE assay [3] [pM]","IC50 (pM), ISRE assay [4] [pM]","IC50 (pM), ISRE assay [5] [pM]","IC50 (pM), ISRE assay [6] [pM]","IC50 (pM), ISRE reporter gene assay [7] [pM]"
"IFWM3328 (antibody, IgG1, V domains shown) VH: EVQLVQSGAEVKKPGESLKISCKGSGYSFTSYWIGWVRQMPGKGLEWMGIIDPSDSDTRYSPSFQGQVTISADKSISTAYLQWSSLKASDTAMYYCARHPGLNWAPDFDYWGQGTLVTVSS VL: DIQMTQSPSSLSASVGDRVTITCRASQSINNLNWYQQKPGKAPKLLIYWASSLQSGVPSRFSGSGSGTDFTLTISSLQPEDFATYYCQQGYDTPFTFGQGTKVEIK",321,1660,456,1170,3080,2000,
"IFWM3320 (antibody, IgG1, V domains shown) VH: EVQLVQSGAEVKKPGESLKISCKGSGYSFTSYWIGWVRQMPGKGLEWMGIIDPSDSDTRYSPSFQGQVTISADKSISTAYLQWSSLKASDTAMYYCARHPGLNWAPDFDYWGQGTLVTVSS VL: DIQMTQSPSSLSASVGDRVTITCRASQSINGVLNWYQQKPGKAPKLLIYFASSLQSGVPSRFSGSGSGTDFTLTISSLQPEDFATYYCQQSHDFPLTFGQGTKVEIK",34,213,53,166,633,355,
"IFWM3308 (antibody, IgG1, V domains shown) VH: EVQLVQSGAEVKKPGESLKISCKGSGYSFTSYWIGWVRQMPGKGLEWMGIIDPSDSDTRYSPSFQGQVTISADKSISTAYLQWSSLKASDTAMYYCARHPGLNWAPDFDYWGQGTLVTVSS VL: DIQMTQSPSSLSASVGDRVTITCRASQSIAEFLNWYQQKPGKAPKLLIYFASSLQSGVPSRFSGSGSGTDFTLTISSLQPEDFATYYCQQSIDFPLTFGQGTKVEIK",59,363,40,295,894,478,
"IFWM3310 (antibody, IgG1, V domains shown) VH: EVQLVQSGAEVKKPGESLKISCKGSGYSFTSYWIGWVRQMPGKGLEWMGIIDPSDSDTRYSPSFQGQVTISADKSISTAYLQWSSLKASDTAMYYCARHPGLNWAPDFDYWGQGTLVTVSS VL: DIQMTQSPSSLSASVGDRVTITCRASQSIGKSLNWYQQKPGKAPKLLIYFASSLQSGVPSRFSGSGSGTDFTLTISSLQPEDFATYYCQQSYDFPLTFGQGTKVEIK",96,166,81,169,473,258,
"IFWM3410 (antibody, IgG1, V domains shown) VH: EVQLVQSGAEVKKPGESLKISCKGSGYSFTSYWIGWVRQMPGKGLEWMGIIDPSDSDTRYSPSFQGQVTISADKSISTAYLQWSSLKASDTAMYYCARHPGLAWAPDFDYWGQGTLVTVSS VL: DIQMTQSPSSLSASVGDRVTITCRASQSIANTNLNWYQQKPGKAPKLLIHWASSLQSGVPSRFSGSGSGTDFTLTISSLQPEDFATYYCQQWYDNPLTFGQGTKVEIK",41,217,89,192,538,183,
"IFWM3322 (antibody, IgG1, V domains shown) VH: EVQLVQSGAEVKKPGESLKISCKGSGYSFTSYWIGWVRQMPGKGLEWMGIIDPSDSDTRYSPSFQGQVTISADKSISTAYLQWSSLKASDTAMYYCARHPGLNWAPDFDYWGQGTLVTVSS VL: DIQMTQSPSSLSASVGDRVTITCRASQSIADFLNWYQQKPGKAPKLLIYFASSLQSGVPSRFSGSGSGTDFTLTISSLQPEDFATYYCQQSHSFPLTFGQGTKVEIK",71,169,59,352,382,460,
"IFWM3304 (antibody, IgG1, V domains shown) VH: EVQLVQSGAEVKKPGESLKISCKGSGYSFTSYWIGWVRQMPGKGLEWMGIIDPSDSDTRYSPSFQGQVTISADKSISTAYLQWSSLKASDTAMYYCARHPGLNWAPDFDYWGQGTLVTVSS VL: DIQMTQSPSSLSASVGDRVTITCRASQSIGSALNWYQQKPGKAPKLLIYFASSLQSGVPSRFSGSGSGTDFTLTISSLQPEDFATYYCQQSYDFPLTFGQGTKVEIK",57,126,31,112,237,157,

# Now from value to binder:
"IC50 (pM), ISRE assay [1] [pM]","IC50 (pM), ISRE assay [2] [pM]","IC50 (pM), ISRE assay [3] [pM]","IC50 (pM), ISRE assay [4] [pM]","IC50 (pM), ISRE assay [5] [pM]","IC50 (pM), ISRE assay [6] [pM]","IC50 (pM), ISRE reporter gene assay [7] [pM]",Binder
7300,35700,43900,32800,74200,,,"IFWM371 (antibody, IgG1, V domains shown) VH: EVQLVQSGAEVKKPGESLKISCKGSGYSFTSYWIGWVRQMPGKGLEWMGIIDPSDSDTRYSPSFQGQVTISADKSISTAYLQWSSLKASDTAMYYCARHPGLNWAPDFDYWGQGTLVTVSS VL: not shown"
76,487,228,519,947,893,,"IFWM3332 (antibody, IgG1, V domains shown) VH: EVQLVQSGAEVKKPGESLKISCKGSGYSFTSYWIGWVRQMPGKGLEWMGIIDPSDSDTRYSPSFQGQVTISADKSISTAYLQWSSLKASDTAMYYCARHPGLNWAPDFDYWGQGTLVTVSS VL: DIQMTQSPSSLSASVGDRVTITCRASQSIANTNLNWYQQKPGKAPKLLIHWASSLQSGVPSRFSGSGSGTDFTLTISSLQPEDFATYYCQQWYDNPLTFGQGTKVEIK"
,,,,,,24,"IFWM3455 (antibody, V domains shown) VH: EVQLVQSGAEVKKPGESLKISCKGSGYSFTSYWIGWVRQMPGKGLEWMGIIDPSDSDTRYSPSFQGQVTISADKSISTAYLQWSSLKASDTAMYYCARHPGLNWAPDFDYWGQGTLVTVSS VL: DIQMTQSPSSLSASVGDRVTITCRASQSIDGYLNWYQQKPGKAPKLLIYFASSLQSGVPSRFSGSGSGTDFTLTISSLQPEDFATYYCQQSYDLPITFGQGTKVEIK"
43,61,40,201,779,158,,"IFWM3416 (antibody, IgG1, V domains shown) VH: EVQLVQSGAEVKKPGESLKISCKGSGYSFTSYWIGWVRQMPGKGLEWMGIIDPSDSDTRYSPSFQGQVTISADKSISTAYLQWSSLKASDTAMYYCARHPGLAWAPDFDYWGQGTLVTVSS VL: DIQMTQSPSSLSASVGDRVTITCRASQSIRNTNLNWYQQKPGKAPKLLIHWASSLQSGVPSRFSGSGSGTDFTLTISSLQPEDFATYYCQQGYDTPFTFGQGTKVEIK"
22,26,19,86,216,72,,"IFWM3405 (antibody, IgG1, V domains shown) VH: EVQLVQSGAEVKKPGESLKISCKGSGYSFTSYWIGWVRQMPGKGLEWMGIIDPSDSDTRYSPSFQGQVTISADKSISTAYLQWSSLKASDTAMYYCARHPGLAWAPDFDYWGQGTLVTVSS VL: DIQMTQSPSSLSASVGDRVTITCRASQSIANNNLNWYQQKPGKAPKLLIHWASSLQSGVPSRFSGSGSGTDFTLTISSLQPEDFATYYCQQGYDTPFTFGQGTKVEIK"
65,86,32,137,188,163,,"IFWM3314 (antibody, IgG1, V domains shown) VH: EVQLVQSGAEVKKPGESLKISCKGSGYSFTSYWIGWVRQMPGKGLEWMGIIDPSDSDTRYSPSFQGQVTISADKSISTAYLQWSSLKASDTAMYYCARHPGLNWAPDFDYWGQGTLVTVSS VL: DIQMTQSPSSLSASVGDRVTITCRASQSIDRALNWYQQKPGKAPKLLIYFASSLQSGVPSRFSGSGSGTDFTLTISSLQPEDFATYYCQQSFDFPLTFGQGTKVEIK"
95,328,100,501,600,752,,"IFWM3307 (antibody, IgG1, V domains shown) VH: EVQLVQSGAEVKKPGESLKISCKGSGYSFTSYWIGWVRQMPGKGLEWMGIIDPSDSDTRYSPSFQGQVTISADKSISTAYLQWSSLKASDTAMYYCARHPGLNWAPDFDYWGQGTLVTVSS VL: DIQMTQSPSSLSASVGDRVTITCRASQSIGDFLNWYQQKPGKAPKLLIYFASSLQSGVPSRFSGSGSGTDFTLTISSLQPEDFATYYCQQALDFPLTFGQGTKVEIK"
35,154,29,220,376,137,,"IFWM3400 (antibody, IgG1, V domains shown) VH: EVQLVQSGAEVKKPGESLKISCKGSGYSFTSYWIGWVRQMPGKGLEWMGIIDPSDSDTRYSPSFQGQVTISADKSISTAYLQWSSLKASDTAMYYCARHPGLAWAPDFDYWGQGTLVTVSS VL: DIQMTQSPSSLSASVGDRVTITCRASQSIADFLNWYQQKPGKAPKLLIYFASSLQSGVPSRFSGSGSGTDFTLTISSLQPEDFATYYCQQSHSFPLTFGQGTKVEIK"
65,251,68,414,839,225,,"IFWM3385 (antibody, IgG1, V domains shown) VH: EVQLVQSGAEVKKPGESLKISCKGSGYSFTSYWIGWVRQMPGKGLEWMGIIDPSDSDTRYSPSFQGQVTISADKSISTAYLQWSSLKASDTAMYYCARHPGLAWAPDFDYWGQGTLVTVSS VL: DIQMTQSPSSLSASVGDRVTITCRASQSIGDFLNWYQQKPGKAPKLLIYFASSLQSGVPSRFSGSGSGTDFTLTISSLQPEDFATYYCQQALDFPLTFGQGTKVEIK"
